# Residue numbers refer to the chain shown, from its start.
# T1: human ALPL expressed on cells (alkaline phosphatase tissue-nonspecific isozyme, NM_000478.4) (human, UniProt P05186 18-501)
# T1 sequence: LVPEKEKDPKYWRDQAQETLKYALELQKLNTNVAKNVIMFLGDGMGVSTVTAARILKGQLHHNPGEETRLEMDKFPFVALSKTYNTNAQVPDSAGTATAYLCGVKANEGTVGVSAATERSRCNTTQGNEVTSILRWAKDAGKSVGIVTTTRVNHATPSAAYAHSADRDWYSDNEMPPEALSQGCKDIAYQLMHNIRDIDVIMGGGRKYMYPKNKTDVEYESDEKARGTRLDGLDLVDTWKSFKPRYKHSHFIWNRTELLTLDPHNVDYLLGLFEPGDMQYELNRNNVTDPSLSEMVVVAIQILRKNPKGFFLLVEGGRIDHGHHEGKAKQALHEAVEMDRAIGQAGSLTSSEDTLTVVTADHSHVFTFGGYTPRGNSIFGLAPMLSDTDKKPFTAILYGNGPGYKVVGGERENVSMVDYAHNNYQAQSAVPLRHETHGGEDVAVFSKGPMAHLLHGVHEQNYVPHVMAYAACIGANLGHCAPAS
# T2: murine ALPL ortholog expressed on HEK 293T cells (NM_001287172.1) (mouse, UniProt P09242 18-501)
# T2 sequence: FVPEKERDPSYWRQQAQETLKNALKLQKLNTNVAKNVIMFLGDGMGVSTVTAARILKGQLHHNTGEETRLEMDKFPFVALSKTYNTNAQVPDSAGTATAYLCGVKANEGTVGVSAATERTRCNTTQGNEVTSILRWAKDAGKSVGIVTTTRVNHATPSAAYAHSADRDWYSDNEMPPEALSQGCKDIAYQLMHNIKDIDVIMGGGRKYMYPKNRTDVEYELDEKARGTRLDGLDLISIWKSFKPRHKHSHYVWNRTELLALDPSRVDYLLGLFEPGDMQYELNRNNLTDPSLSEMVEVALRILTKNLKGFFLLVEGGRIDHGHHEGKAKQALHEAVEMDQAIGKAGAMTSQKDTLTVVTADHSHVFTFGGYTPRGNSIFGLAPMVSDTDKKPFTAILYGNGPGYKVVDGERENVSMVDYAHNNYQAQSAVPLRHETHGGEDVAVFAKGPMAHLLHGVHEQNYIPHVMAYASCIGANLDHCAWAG
# T3: AAVR (universal AAV entry factor) expressed on HEK 293T cells (UniProt Q8IZA0 1-1049)
# T3 construct: whole, on cells; also called AAVR positive control
# T3 sequence: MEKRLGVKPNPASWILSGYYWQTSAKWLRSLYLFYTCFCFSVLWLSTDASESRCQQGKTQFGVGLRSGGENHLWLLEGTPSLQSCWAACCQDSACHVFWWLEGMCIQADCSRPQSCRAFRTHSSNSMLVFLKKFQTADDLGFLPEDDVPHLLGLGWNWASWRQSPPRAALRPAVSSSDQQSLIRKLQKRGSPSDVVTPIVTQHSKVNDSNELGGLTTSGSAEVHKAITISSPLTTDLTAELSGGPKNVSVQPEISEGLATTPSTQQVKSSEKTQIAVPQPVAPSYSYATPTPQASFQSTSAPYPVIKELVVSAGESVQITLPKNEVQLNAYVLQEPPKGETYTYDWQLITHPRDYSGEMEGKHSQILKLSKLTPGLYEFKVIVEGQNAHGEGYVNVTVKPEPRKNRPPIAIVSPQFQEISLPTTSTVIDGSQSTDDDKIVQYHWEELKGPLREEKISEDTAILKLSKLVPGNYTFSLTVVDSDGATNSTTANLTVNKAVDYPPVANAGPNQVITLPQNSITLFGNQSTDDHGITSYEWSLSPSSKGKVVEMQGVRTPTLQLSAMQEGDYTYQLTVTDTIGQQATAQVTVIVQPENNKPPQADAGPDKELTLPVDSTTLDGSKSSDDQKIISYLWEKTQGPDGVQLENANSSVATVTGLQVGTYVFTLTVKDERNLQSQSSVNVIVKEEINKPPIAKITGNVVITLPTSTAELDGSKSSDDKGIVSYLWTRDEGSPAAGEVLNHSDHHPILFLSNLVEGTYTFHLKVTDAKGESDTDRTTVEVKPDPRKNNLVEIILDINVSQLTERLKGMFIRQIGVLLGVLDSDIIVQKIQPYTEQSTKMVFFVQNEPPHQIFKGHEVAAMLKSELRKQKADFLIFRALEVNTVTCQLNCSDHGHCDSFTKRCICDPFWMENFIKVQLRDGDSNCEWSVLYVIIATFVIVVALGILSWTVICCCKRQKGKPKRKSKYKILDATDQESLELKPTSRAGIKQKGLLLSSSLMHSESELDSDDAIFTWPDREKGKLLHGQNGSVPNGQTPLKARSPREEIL
# T4: library of over 5,500 cDNAs overexpressed in human cells (ALPL) (Homo sapiens, UniProt P05186)
# T4 construct: expressed in transfected cells
# T4 sequence (P05186 18-501): T1 sequence
# B1: TTM-002 capsid variant (AAV particle comprising the TTM-002 AAV9 capsid variant) (other)
# chain 1: MAADGYLPDWLEDNLSEGIREWWALKPGAPQPKANQQHQDNARGLVLPGYKYLGPGNGLDKGEPVNAADAAALEHDKAYDQQLKAGDNPYLKYNHADAEFQERLKEDTSFGGNLGRAVFQAKKRLLEPLGLVEEAAKTAPGKKRPVEQSPQEPDSSAGIGKSGAQPAKKRLNFGQTGDTESVPDPQPIGEPPAAPSGVGSLTMASGGGAPVADNNEGADGVGSSSGNWHCDSQWLGDRVITTSTRTWALPTYNNHLYKQISNSTSGGSSNDNAYFGYSTPWGYFDFNRFHCHFSPRDWQRLINNNWGFRPKRLNFKLFNIQVKEVTDNNGVKTIANNLTSTVQVFTDSDYQLPYVLGSAHEGCLPPFPADVFMIPQYGYLTLNDGSQAVGRSSFYCLEYFPSQMLRTGNNFQFSYEFENVPFHSSYAHSQSLDRLMNPLIDQYLYYLSKTINGHDSPHKSGQNQQTLKFSVAGPSNMAVQGRNYIPGPSYRQQRVSTTVTQNNNSEFAWPGASSWALNGRNSLMNPGPAMASHKEGEDRFFPLSGSLIFGKQGTGRDNVDADKVMITNEEEIKTTNPVATESYGQVATNHQSAQAQAQTGWVQNQGILPGMVWQDRDVYLQGPIWAKIPHTDGNFHPSPLMGGFGMKHPPPQILIKNTPVPADPPTAFNKDKLNSFITQYSTGQVSVEIEWELQKENSKRWNPEIQYTSNYYKSNNVEFAVNTEGVYSEPRPIGTRYLTRNL
# chain 2: TAPGKKRPVEQSPQEPDSSAGIGKSGAQPAKKRLNFGQTGDTESVPDPQPIGEPPAAPSGVGSLTMASGGGAPVADNNEGADGVGSSSGNWHCDSQWLGDRVITTSTRTWALPTYNNHLYKQISNSTSGGSSNDNAYFGYSTPWGYFDFNRFHCHFSPRDWQRLINNNWGFRPKRLNFKLFNIQVKEVTDNNGVKTIANNLTSTVQVFTDSDYQLPYVLGSAHEGCLPPFPADVFMIPQYGYLTLNDGSQAVGRSSFYCLEYFPSQMLRTGNNFQFSYEFENVPFHSSYAHSQSLDRLMNPLIDQYLYYLSKTINGHDSPHKSGQNQQTLKFSVAGPSNMAVQGRNYIPGPSYRQQRVSTTVTQNNNSEFAWPGASSWALNGRNSLMNPGPAMASHKEGEDRFFPLSGSLIFGKQGTGRDNVDADKVMITNEEEIKTTNPVATESYGQVATNHQSAQAQAQTGWVQNQGILPGMVWQDRDVYLQGPIWAKIPHTDGNFHPSPLMGGFGMKHPPPQILIKNTPVPADPPTAFNKDKLNSFITQYSTGQVSVEIEWELQKENSKRWNPEIQYTSNYYKSNNVEFAVNTEGVYSEPRPIGTRYLTRNL
# chain 3: MASGGGAPVADNNEGADGVGSSSGNWHCDSQWLGDRVITTSTRTWALPTYNNHLYKQISNSTSGGSSNDNAYFGYSTPWGYFDFNRFHCHFSPRDWQRLINNNWGFRPKRLNFKLFNIQVKEVTDNNGVKTIANNLTSTVQVFTDSDYQLPYVLGSAHEGCLPPFPADVFMIPQYGYLTLNDGSQAVGRSSFYCLEYFPSQMLRTGNNFQFSYEFENVPFHSSYAHSQSLDRLMNPLIDQYLYYLSKTINGHDSPHKSGQNQQTLKFSVAGPSNMAVQGRNYIPGPSYRQQRVSTTVTQNNNSEFAWPGASSWALNGRNSLMNPGPAMASHKEGEDRFFPLSGSLIFGKQGTGRDNVDADKVMITNEEEIKTTNPVATESYGQVATNHQSAQAQAQTGWVQNQGILPGMVWQDRDVYLQGPIWAKIPHTDGNFHPSPLMGGFGMKHPPPQILIKNTPVPADPPTAFNKDKLNSFITQYSTGQVSVEIEWELQKENSKRWNPEIQYTSNYYKSNNVEFAVNTEGVYSEPRPIGTRYLTRNL
# B2: TTM-001: AAV9 capsid variant comprising SPHSKA (SEQ ID NO: 941) in loop IV (protein)
# chain 1: B1 chain 1 with H454S, D455G, K459S, S460K, G461A
# chain 2: GSGSPHSKAQNQQT
# Columns and labels:
# [1] = molecular target: T1, human ALPL expressed on cells (alkaline …); experiment: cell-based or functional assay
# [2] = molecular target: T2, murine ALPL ortholog expressed on HEK …; experiment: cell-based or functional assay
# [3] = molecular target: T3, AAVR (universal AAV entry factor) …; experiment: binding/internalization: AAV incubated 2 or 3 h with AAVR transfected HEK 293T cells, washed, viral genomes quantified
# [4] = molecular target: T1, human ALPL expressed on cells (alkaline …); experiment: cell-based or functional assay; remark: listed apart in the source
# [5] = molecular target: T4, library of over 5,500 cDNAs overexpressed in human cells (ALPL); experiment: Cell binding array assay for receptor identification; conditions: detected with anti-AAV9 antibody
# Excerpt: A cell binding array assay was then used to identify a receptor for the TTM-001 and TTM-002 capsid variants. Briefly, a library of over 5,500 cDNAs was overexpressed in human cells. Cells were contacted with a test ligand, e.g., AAV viral particles comprising a TTM-001 capsid variant or an AAV9 control capsid, which was applied to the array. Binding of the TTM-001 capsid variant or the AAV9 control capsid to the cells was detected using an anti-AAV9 antibody followed by a labeled anti-IgG detection antibody. […] This interacting protein was identified as the GPI-anchored protein, alkaline phosphatase issue-nonspecific isozyme (NM_000478.4, which is incorporated by reference herein) (ALPL). ALPL is part of a family of membrane-bound glycoproteins that hydrolyze monophosphate esters at a high pH (see, e.g., Weiss et al., Isolation and characterization of a cDNA encoding a human liver/bone/kidney-type alkaline phosphatase. Proc. Natl. Acad. Sci., 83:7182-7186 (1986), the contents of which are hereby incorporated by reference in their entirety).
Molecule,fold change in luciferase activity relative to the pCMV6 control cells (cells transfected with human ALPL protein) [1] [fold],fold change in luciferase activity relative to the pCMV6 control cells (cells transfected with murine ALPL protein) [2] [fold],fold change in viral gene expression (2^-ΔΔCT) relative to pCMV6 transfected cells [3] [fold],"luciferase activity, fold change relative to pCMV6 transfected HEK 293T cells (ALPL transfected cells) [4] [fold]",interaction with ALPL in cell binding array [5]
B1,24,24,3.2,166,–
B2,–,–,–,–,a unique interaction with the TTM-001 capsid variant

# Reference: patent US20260250318A1, “COMPOSITIONS AND METHODS FOR CROSSING THE BLOOD BRAIN BARRIER” (VOYAGER THERAPEUTICS, INC., priority 2022, published 2026)
